Test results reported in patent publication US20120027773A1 (AVEO PHARMACEUTICALS, published 2012).

B1: 07F01 (antibody, mouse IgG1, kappa, V domains shown)
VH: EVKLLESGGGLVQPGGSLKLSCAASGFDFSRHWMSWVRLAPGKGLEWIAEINPDSRTINYTPSLKEKFIISRDNAKNSLFLQMNRVRSEDTALYYCARRVRIHYYGAMDCWGQGTSVTVSS
VL: DIVLTQSQKIVSTSVGARVSVTCKASQNVGSSLVWYQQKPGQSPKTLIYSASFRYSGVPDRFTGSGSGTDFTLTISNVQSEDLADYFCQQYNNYPLTFGAGTKLELKR
notes: Murine hybridoma monoclonal, IgG1/kappa; also called mu07F01; antibody 07F01
B2: 29B06 (antibody, mouse IgG1, kappa)
heavy: EVQLQESGPSLVKPSQTLSLTCSVTGDSITSGYWNWIRKFPGNKLEYMGYISYSGKTYYNPSLKSRISITRDTSKNHYYLQLISVTAEDTATYYCARSKYDYAMDYWGQGTSVTVSSAKTTPPSVYPLAPGSAAQTNSMVTLGCLVKGYFPEPVTVTWNSGSLSSGVHTFPAVLQSDLYTLSSSVTVPSSTWPSETVTCNVAHPASSTKVDKKIVPRDCGCKPCICTVPEVSSVFIFPPKPKDVLTITLTPKVTCVVVDISKDDPEVQFSWFVDDVEVHTAQTQPREEQFNSTFRSVSELPIMHQDWLNGKEFKCRVNSAAFPAPIEKTISKTKGRPKAPQVYTIPPPKEQMAKDKVSLTCMITDFFPEDITVEWQWNGQPAENYKNTQPIMDTDGSYFVYSKLNVQKSNWEAGNTFTCSVLHEGLHNHHTEKSLSHSPGK
light: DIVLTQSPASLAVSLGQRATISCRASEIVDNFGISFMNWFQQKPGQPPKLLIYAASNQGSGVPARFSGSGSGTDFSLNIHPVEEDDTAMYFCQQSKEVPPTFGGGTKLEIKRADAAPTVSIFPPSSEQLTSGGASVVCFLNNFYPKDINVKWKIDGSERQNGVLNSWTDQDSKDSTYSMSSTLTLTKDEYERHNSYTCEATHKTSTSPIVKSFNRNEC
notes: Murine hybridoma monoclonal, IgG1/kappa; also called mu29B06; antibody 29B06

How the values were obtained:
[1] = target: T1, human wild-type RON (cell surface) (human, UniProt Q04912 25-1400); experiment: FACS titration on PC3 cells, 4 C
T1 construct: whole, on cells; also called Human RON; wt RON
Description: (§1) Binding to cell surface human wild-type RON and the delta 160 RON variant by antibodies 07F01, Sh07F01-62, 29B06, and Sh29B06-78 was measured at 4° C., using Fluorescence Activated Cell Sorting (FACS). PC3 cells expressing the human wild-type RON, and HT29 cells expressing the delta 160 variant, were harvested using cell dissociation buffer (Invitrogen), washed twice with FACS buffer (PBS with 0.5% BSA), and treated 10 minutes with Cyto Q Antibody diluent and FC receptor block (Innovex Biosciences, Richmond, Calif.). Purified antibodies were diluted in FACS buffer over a concentration range from 0.01 nM to 25 nM. Cells were incubated with 100 μl of antibody for one hour, washed with FACS buffer three times, and incubated for 45 minutes with goat anti-mouse PE-conjugated antibody (Jackson ImmunoResearch Laboratories, West Grove, Pa.) or donkey anti-human PE-conjugated antibody (Jackson ImmunoResearch Laboratories, West Grove, Pa.). Cells were washed three times with FACS buffer, resuspended in 300 μl of FACS buffer, and analyzed using a Beckman Coulter Cytomics FC 500 FACS instrument. All four antibodies were compared in the same experiment.

[2] = target: T2, recombinant human RON SEMA and PSI domains (human, UniProt Q04912 25-571); experiment: SPR, Ab captured on anti-mouse IgG, 37 C, AVG
T2 construct: domain: SEMA+PSI; Commercial protein (R&D Systems); also called rhRON SEMA+PSI; hRON SEMA+PSI
Description: (§2) The binding affinities and kinetics of binding of antibodies 07F01, 29B06, 17F06, 18H09, and 12B11 to recombinant human RON-ECD/mFc fusion protein (rhRON ECD/mFc) and recombinant human RON SEMA and PSI domains (rhRON SEMA+PSI) (R&D Systems, Inc., Minneapolis, Minn.) were measured by surface plasmon resonance, using a Biacore T100 instrument (GE Healthcare, Piscataway, N.J.).
(§3) Rabbit anti-mouse IgGs (GE Healthcare) were immobilized on carboxymethylated dextran CM4 sensor chips (GE Healthcare) by amine coupling, according to a standard protocol. Analyses were performed at 25° C. and 37° C., using PBS containing 0.05% surfactant P20 as running buffer. The antibodies were captured in individual flow cells at a flow rate of 10 μl/min. Injection time was varied for each antibody to yield an Rmax between 30 and 60 RU. 250 μg/mL mouse Fc were injected at 30 μl/min for 120 seconds to block non-specific binding of antibodies to Fc portion of the protein when needed. Buffer, rhRon ECD/mFc or rhRON SEMA+PSI diluted in running buffer was injected sequentially over a reference surface (no antibody captured) and the active surface (antibody to be tested) for 300 seconds at 60 μl/minute. The dissociation phase was monitored for up to 3600 seconds. The surface was then regenerated with two 60-second injections of 10 mM Glycine-HCl, pH 1.7, at a flow rate of 60 μl/min. The rhRON ECD/mFc or rhRON SEMA+PSI concentration range tested was 0.625 nM to 20 nM.

[3] = target: T3, delta 160 RON variant (cell surface) (human, UniProt Q04912 25-1400); experiment: FACS titration on HT29 cells, 4 C
T3 construct: whole, on cells; Splice variant; also called delta 160 variant
Description: as §1

[4] = target: T1, human wild-type RON (cell surface); experiment: FACS, 10 ug/ml antibody, PC3 cells, 4 C
Description: Binding to cell surface wild-type RON and delta 160 RON at 4° C. was determined for antibodies 07F01, 12B11, 17F06, 18H09, and 29B06, using FACS. Cells expressing wild-type RON (PC3), and cells expressing delta 160 RON (HT-29), were harvested using cell dissociation buffer (Invitrogen), washed twice with FACS buffer (0.5% BSA PBS) and treated with CytoQ Antibody diluent and FC receptor block (Innovex). Purified antibodies were diluted at a concentration of 10 μg/ml, in FACS buffer. Cells were incubated with 100 μl of antibody mix for one hour, washed with FACS buffer three times, and incubated for 45 minutes with goat anti-mouse PE conjugated antibody (Jackson Immunoresearch Laboratories). Cells were washed three times with FACS buffer, resuspended in 300 μl of FACS buffer and analyzed using a Beckman Coulter Cytomics FC 500 FACS instrument.

[5] = target: T1, human wild-type RON (cell surface); experiment: cell-based or functional assay
[6] = target: T4, recombinant human RON-ECD/mFc fusion protein (human, UniProt Q04912 25-957); experiment: SPR, Ab captured on anti-mouse IgG, 25 C, AVG
T4 construct: extracellular domain; also called rhRON ECD/mFc; rhRon ECD/mFc; not shown: THXmFC: Thrombin/His tag/Factor Xa-AJ mouse IgG-Fc
Description: as §2, §3
(§4) Kinetic parameters were determined using the kinetic function of the BIAevaluation software (GE Healthcare) with double reference subtraction. Kinetic parameters for each antibody, kₐ (association rate constant), kd (dissociation rate constant) and KD (equilibrium dissociation constant) were determined.

[7] = target: T4, recombinant human RON-ECD/mFc fusion …; experiment: SPR, Ab captured on anti-mouse IgG, 37 C, AVG
Description: as §2, §3, §4

| Kd [1] [nM] | Kd [2] [nM] | koff [2] [s⁻¹] | kon [2] [M⁻¹ s⁻¹] | Kd [3] [nM] | PC3 % cell surface binding [4] [%] | Mean IC50 (nM), inhibition of MSP-dependent ERK phosphorylation, T47D cells [5] [nM] | Kd [6] [nM] | koff [6] [s⁻¹] | kon [6] [M⁻¹ s⁻¹] | Kd [7] [nM] | koff [7] [s⁻¹] | kon [7] [M⁻¹ s⁻¹] | Binder |
| --- | --- | --- | --- | --- | --- | --- | --- | --- | --- | --- | --- | --- | --- |
| 0.053 | 0.4 | 0.0008 | 2e+06 | 0.1 | 99.3 | 0.07 | 0.23 | 9.3e-05 | 400000 | 0.21 | 0.00035 | 2.1e+06 | B1 |
| 0.136 | 1.3 | 0.00069 | 520000 | 0.167 | 99.1 | 0.44 | 0.65 | 0.00013 | 200000 | 0.28 | 0.0007 | 2.3e+06 | B2 |
